This passage reports self-aminoacylation results from the supplement of paper PMC9233669.

Variants at the floor of the assay were thinned out.

One data set relates to biotinyl-Val-oxazolone. The data set can be described thus: self-aminoacylation, catalytic enhancement (BVO) (fold over background); higher = more active; k-Seq, kA / k0A0; sequences stand for … in GGGAAUGGAUCCACAUCUACGAAUUC…UUCACUGCAGACUUGACGAAGCUG
A digest of the protocol: (§1)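 Each biotinyl-aminoacyl-oxazolone, at 2–1250 μM, was incubated with mutagenized RNA pools (0.43 μM) carrying a 21-nt variable region. The 50 μL reactions contained HEPES/NaCl/KCl/MgCl2/CaCl2 buffer with 5% acetonitrile at pH 6.9–7.0 and ran for 90 minutes at room temperature. After streptavidin capture, RNA was measured by qPCR in triplicate and by Illumina sequencing, and catalytic enhancement was calculated as median kA over the uncatalyzed rate from a pseudo-first-order fit of per-sequence fraction reacted.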

The next data set has as its system biotinyl-Ile-oxazolone. The data set can be described thus: self-aminoacylation, catalytic enhancement (BIO) (fold over background); higher = more active; k-Seq, kA / k0A0; sequences stand for … in GGGAAUGGAUCCACAUCUACGAAUUC…UUCACUGCAGACUUGACGAAGCUG
The method, boiled down:
as §1

Another data set concerns biotinyl-Leu-oxazolone. Put plainly: self-aminoacylation, catalytic enhancement (BLO) (fold over background); higher = more active; k-Seq, kA / k0A0; sequences stand for … in GGGAAUGGAUCCACAUCUACGAAUUC…UUCACUGCAGACUUGACGAAGCUG
A digest of the protocol:
as §1

A further data set deals with biotinyl-Trp-oxazolone. Put plainly: self-aminoacylation, catalytic enhancement (BWO) (fold over background); higher = more active; k-Seq, kA / k0A0; sequences stand for … in GGGAAUGGAUCCACAUCUACGAAUUC…UUCACUGCAGACUUGACGAAGCUG
The method, boiled down:
as §1

The test system of another data set is biotinyl-Met-oxazolone. Put plainly: self-aminoacylation, catalytic enhancement (BMO) (fold over background); higher = more active; k-Seq, kA / k0A0; sequences stand for … in GGGAAUGGAUCCACAUCUACGAAUUC…UUCACUGCAGACUUGACGAAGCUG
A digest of the protocol:
as §1

The next data set relates to biotinyl-Phe-oxazolone. Put plainly: self-aminoacylation, catalytic enhancement (BFO) (fold over background); higher = more active; k-Seq, kA / k0A0; sequences stand for … in GGGAAUGGAUCCACAUCUACGAAUUC…UUCACUGCAGACUUGACGAAGCUG
The method, boiled down:
as §1

On to “AUUACCCGGGACAUCGAGUGA [Fam2.1 aminoacylation ribozyme variant]”, for which the self-aminoacylation in the data set with biotinyl-Val-oxazolone turned out to be 5.01; in the data set on biotinyl-Ile-oxazolone, 4.52; in the data set on biotinyl-Leu-oxazolone it was 11.2; with biotinyl-Trp-oxazolone it was 12.3; in the data set with biotinyl-Met-oxazolone, 10.5; in the data set on biotinyl-Phe-oxazolone, 80.3.
As for “AUUACCCGGGCCAUCGAGUGA [Fam2.1 aminoacylation ribozyme variant]”, the self-aminoacylation was 5.47 with biotinyl-Val-oxazolone; 4.18 in the data set with biotinyl-Ile-oxazolone; 10.1 in the data set on biotinyl-Leu-oxazolone; 8.23 with biotinyl-Trp-oxazolone; 8.49 in the data set on biotinyl-Met-oxazolone; 41.7 in the data set on biotinyl-Phe-oxazolone.
Turning to “AUUACCCGGGUCAUCCAGUGA [Fam2.1 aminoacylation ribozyme variant]”, the self-aminoacylation is 3.05 in the data set on biotinyl-Val-oxazolone; 3.39 with biotinyl-Ile-oxazolone; 4.86 in the data set with biotinyl-Leu-oxazolone; 5.93 with biotinyl-Trp-oxazolone; 4.59 with biotinyl-Met-oxazolone; 28.6 in the data set on biotinyl-Phe-oxazolone.
Consider “AUUACCCGGGUCAUCGAGCGA [Fam2.1 aminoacylation ribozyme variant]”, for which the self-aminoacylation with biotinyl-Val-oxazolone was found to be 2.18; in the data set with biotinyl-Ile-oxazolone, 2.08; in the data set with biotinyl-Leu-oxazolone, 2.22; with biotinyl-Trp-oxazolone, 1.55; in the data set on biotinyl-Met-oxazolone it was 1.97; with biotinyl-Phe-oxazolone, 1.09.
“AUUACCCGGGUCAUCGAGUGA [Fam2.1 aminoacylation ribozyme variant]”: the self-aminoacylation in the data set on biotinyl-Val-oxazolone turned out to be 3.85; in the data set on biotinyl-Ile-oxazolone, 3.57; in the data set with biotinyl-Leu-oxazolone it was 7.1; in the data set on biotinyl-Trp-oxazolone, 7.86; with biotinyl-Met-oxazolone, 6.91; with biotinyl-Phe-oxazolone it was 44.9.
For “AUUACCCGGGUCAUCGGGUGA [Fam2.1 aminoacylation ribozyme variant]”, the self-aminoacylation in the data set on biotinyl-Val-oxazolone worked out at 7.9; with biotinyl-Ile-oxazolone, 6.62; in the data set on biotinyl-Leu-oxazolone, 14.7; in the data set on biotinyl-Trp-oxazolone, 12.4; in the data set on biotinyl-Met-oxazolone, 13.9; in the data set on biotinyl-Phe-oxazolone, 132.
On to “AUUACCCGGGUCAUCGUGUGA [Fam2.1 aminoacylation ribozyme variant]”, for which the self-aminoacylation in the data set on biotinyl-Val-oxazolone was determined as 3.17; with biotinyl-Ile-oxazolone it was 2.6; in the data set with biotinyl-Leu-oxazolone it was 5.65; with biotinyl-Trp-oxazolone, 5.65; in the data set on biotinyl-Met-oxazolone, 4.88; in the data set with biotinyl-Phe-oxazolone, 39.
“AUUACCCGGGUUAUCGAGUGA [Fam2.1 aminoacylation ribozyme variant]”: the self-aminoacylation in the data set with biotinyl-Val-oxazolone was 5.94; with biotinyl-Ile-oxazolone, 5.68; in the data set on biotinyl-Leu-oxazolone, 14.4; in the data set on biotinyl-Trp-oxazolone it was 14.6; in the data set with biotinyl-Met-oxazolone it was 13.3; with biotinyl-Phe-oxazolone, 94.5.
Consider “AUUACCCGUGUCAUCGAGUGA [Fam2.1 aminoacylation ribozyme variant]”, for which the self-aminoacylation in the data set with biotinyl-Val-oxazolone was 4.8; in the data set with biotinyl-Ile-oxazolone, 4.4; in the data set on biotinyl-Leu-oxazolone, 8.6; in the data set with biotinyl-Trp-oxazolone, 10.7; with biotinyl-Met-oxazolone, 8.54; in the data set on biotinyl-Phe-oxazolone, 38.3.
Turning to “AUUACCCUAGGCAUCGAGUGA [Fam2.1 aminoacylation ribozyme variant]”, the self-aminoacylation was determined as 2.68 in the data set on biotinyl-Val-oxazolone; 2.47 in the data set with biotinyl-Ile-oxazolone; 5.37 in the data set with biotinyl-Leu-oxazolone; 6.47 in the data set with biotinyl-Trp-oxazolone; 5.3 with biotinyl-Met-oxazolone; 18.1 with biotinyl-Phe-oxazolone.
For “AUUACCCUAGUCAUCGAGUGC [Fam2.1 aminoacylation ribozyme variant]”, the self-aminoacylation in the data set on biotinyl-Val-oxazolone was 1.04; in the data set on biotinyl-Ile-oxazolone, 1.15; in the data set on biotinyl-Leu-oxazolone, 1.35; with biotinyl-Trp-oxazolone, 0.589; with biotinyl-Met-oxazolone, 1.06; in the data set on biotinyl-Phe-oxazolone, 1.25.
Turning to “AUUACCCUAGUCAUCGUGUGA [Fam2.1 aminoacylation ribozyme variant]”, the self-aminoacylation in the data set on biotinyl-Val-oxazolone was determined as 1.29; in the data set on biotinyl-Ile-oxazolone, 1.25; with biotinyl-Leu-oxazolone, 2.17; with biotinyl-Trp-oxazolone it was 2.89; in the data set on biotinyl-Met-oxazolone, 2.4; in the data set with biotinyl-Phe-oxazolone, 5.35.
Turning to “AUUACCCUAGUCAUCUAGUGA [Fam2.1 aminoacylation ribozyme variant]”, the self-aminoacylation with biotinyl-Val-oxazolone was 3.59; in the data set on biotinyl-Ile-oxazolone, 3.37; with biotinyl-Leu-oxazolone it was 6.97; with biotinyl-Trp-oxazolone it was 10.6; in the data set on biotinyl-Met-oxazolone, 7.37; with biotinyl-Phe-oxazolone, 27.6.
“AUUACCCUCCUCAUCGAGUGA [Fam2.1 aminoacylation ribozyme variant]”: the self-aminoacylation in the data set on biotinyl-Val-oxazolone turned out to be 2.08; in the data set with biotinyl-Ile-oxazolone, 1.81; in the data set on biotinyl-Leu-oxazolone, 3.99; in the data set with biotinyl-Trp-oxazolone it was 4.74; with biotinyl-Met-oxazolone, 3.98; in the data set with biotinyl-Phe-oxazolone, 15.
“AUUACCCUCGACAUCGAGUGA [Fam2.1 aminoacylation ribozyme variant]”: the self-aminoacylation was found to be 5.56 with biotinyl-Val-oxazolone; 4.58 in the data set with biotinyl-Ile-oxazolone; 12.7 in the data set on biotinyl-Leu-oxazolone; 14.5 in the data set with biotinyl-Trp-oxazolone; 11.5 in the data set with biotinyl-Met-oxazolone; 83 in the data set with biotinyl-Phe-oxazolone.
For “AUUACCCUCGUCAACGAGUGA [Fam2.1 aminoacylation ribozyme variant]”, the self-aminoacylation came to 2.06 with biotinyl-Val-oxazolone; 1.89 in the data set on biotinyl-Ile-oxazolone; 3 in the data set with biotinyl-Leu-oxazolone; 2.82 in the data set on biotinyl-Trp-oxazolone; 3.05 in the data set on biotinyl-Met-oxazolone; 5.53 in the data set with biotinyl-Phe-oxazolone.
For “AUUACCCUCGUCAUCGAGUAA [Fam2.1 aminoacylation ribozyme variant]”, the self-aminoacylation was determined as 1.02 with biotinyl-Val-oxazolone; 0.904 in the data set on biotinyl-Ile-oxazolone; 0.985 in the data set with biotinyl-Leu-oxazolone; 0.978 in the data set on biotinyl-Trp-oxazolone; 0.866 in the data set with biotinyl-Met-oxazolone; 0.716 in the data set on biotinyl-Phe-oxazolone.
As to “AUUACCCUCGUCAUCGCGUGA [Fam2.1 aminoacylation ribozyme variant]”, the self-aminoacylation was found to be 4.02 in the data set with biotinyl-Val-oxazolone; 3.63 in the data set with biotinyl-Ile-oxazolone; 6.51 with biotinyl-Leu-oxazolone; 6.81 with biotinyl-Trp-oxazolone; 6.01 in the data set with biotinyl-Met-oxazolone; 51.9 in the data set with biotinyl-Phe-oxazolone.
Take “AUUACCCUCGUGAUCGAGUGA [Fam2.1 aminoacylation ribozyme variant]”: the self-aminoacylation with biotinyl-Val-oxazolone was 4.09; with biotinyl-Ile-oxazolone, 4.47; with biotinyl-Leu-oxazolone, 11.6; with biotinyl-Trp-oxazolone, 10.8; in the data set on biotinyl-Met-oxazolone, 10.4; in the data set on biotinyl-Phe-oxazolone it was 70.3.
Turning to “AUUACCCUGAACAUCGAGUGA [Fam2.1 aminoacylation ribozyme variant]”, the self-aminoacylation is 3.35 in the data set on biotinyl-Val-oxazolone; 3.4 with biotinyl-Ile-oxazolone; 6.97 in the data set on biotinyl-Leu-oxazolone; 8.05 in the data set on biotinyl-Trp-oxazolone; 6.65 with biotinyl-Met-oxazolone; 24.2 in the data set with biotinyl-Phe-oxazolone.
For “AUUACCCUGAUCAUCCAGUGA [Fam2.1 aminoacylation ribozyme variant]”, the self-aminoacylation was determined as 3.49 in the data set with biotinyl-Val-oxazolone; 2.91 in the data set with biotinyl-Ile-oxazolone; 5.22 with biotinyl-Leu-oxazolone; 7.09 in the data set with biotinyl-Trp-oxazolone; 5.79 in the data set on biotinyl-Met-oxazolone; 16.9 in the data set on biotinyl-Phe-oxazolone.
Regarding “AUUACCCUGAUCAUCGAGUGG [Fam2.1 aminoacylation ribozyme variant]”, the self-aminoacylation with biotinyl-Val-oxazolone was 1.62; with biotinyl-Ile-oxazolone it was 1.52; with biotinyl-Leu-oxazolone, 2.42; in the data set on biotinyl-Trp-oxazolone, 2.13; with biotinyl-Met-oxazolone, 2.82; with biotinyl-Phe-oxazolone, 2.77.
Turning to “AUUACCCUGAUCAUUGAGUGA [Fam2.1 aminoacylation ribozyme variant]”, the self-aminoacylation amounted to 5.87 in the data set with biotinyl-Val-oxazolone; 5.87 in the data set on biotinyl-Ile-oxazolone; 12.2 with biotinyl-Leu-oxazolone; 15.6 in the data set with biotinyl-Trp-oxazolone; 12.9 with biotinyl-Met-oxazolone; 68.4 in the data set on biotinyl-Phe-oxazolone.
Take “AUUACCCUGAUGAUCGAGUGA [Fam2.1 aminoacylation ribozyme variant]”: the self-aminoacylation in the data set with biotinyl-Val-oxazolone worked out at 5.25; with biotinyl-Ile-oxazolone it was 5.5; in the data set on biotinyl-Leu-oxazolone, 13; in the data set on biotinyl-Trp-oxazolone, 14.4; with biotinyl-Met-oxazolone it was 12.7; in the data set on biotinyl-Phe-oxazolone, 79.7.
Regarding “AUUACCCUGCUCAUCCAGUGA [Fam2.1 aminoacylation ribozyme variant]”, the self-aminoacylation was 3.34 in the data set with biotinyl-Val-oxazolone; 3.06 in the data set with biotinyl-Ile-oxazolone; 6.26 in the data set on biotinyl-Leu-oxazolone; 7.43 in the data set with biotinyl-Trp-oxazolone; 5.54 in the data set with biotinyl-Met-oxazolone; 34.2 with biotinyl-Phe-oxazolone.
